Laboratory results: the supplement of paper PMC10201428
± gives the standard deviation of the averaged measurements.

How the values were obtained:
[1] = tested on: VchCAST RNA-guided transposition machinery (E. coli BL21(DE3) host, lacZ target); assay: relative integration efficiency (T-LR orientation) vs wild-type transposon end (log2 (normalized fold change)); transposon end mutated: right end (5 bp flank + 75 bp right end); higher = more efficient transposition
Method in brief: (§1)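 In E. coli BL21(DE3), a T7-driven effector plasmid was paired with a pUC57 mini-transposon donor containing 1549 left-end or 1849 right-end barcoded transposon variants. Cells grew on plates with 0.1 mM IPTG at 37°C for 18 h. Relative integration efficiency was derived from Illumina reads of genomic integration junctions against input plasmids, as a log-transformed output/input barcode fold change normalised to reference barcodes.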

[2] = tested on: VchCAST RNA-guided transposition machinery (E. coli BL21(DE3) host, lacZ target); assay: relative integration efficiency (T-RL orientation) vs wild-type transposon end (log2 (normalized fold change)); transposon end mutated: right end (5 bp flank + 75 bp right end); higher = more efficient transposition
Method in brief: as §1

| Sequence | relative integration efficiency (log2) [1] | relative integration efficiency (log2) [2] |
| --- | --- | --- |
| ACATTTGTTGATACAACCATAAAAGTCGAATTACACCCATAAATTGATAATTATCACACCCATAAATTGATATTGCCTCTGATCATAGTCAGACCAACATTGCTACGACCCGTATTCGCACCGACAC | -3.24 ± 0.7 | -2.69 ± 0.26 |
| ACATTTGTTGATACAACCATAAAAGTCGCCGGCACAAACGCCCGGTCGCCGGCGACACAAACGCCCGGTCGCGGTAAGAGGATCATAGTCAGACCAACATTGCTACGACCCGTATTCGCACCGACAC | -2.61 ± 0.042 | -5.34 ± 0.34 |
| ACATTTGTTGATACAACCATAAAATCATAATTACACCCATAAATTCATAATTATCACACCCATAAATTCATATTGCCTCTGATCATAGTCAGACCAACATTGCTACGACCCGTATTCGCACCGACAC | -1.52 ± 0.48 | -4.92 ± 0.57 |
| ACATTTGTTGATACAACCATAAAATCATAATTACACCCATAAATTGATAATTATCACACCCCATTTAACTATAACGCTCTGATCATAGTCAGACCAACATTGCTACGACCCGTATTCGCACCGACAC | 1.21 ± 0.17 | -2.85 ± 0.24 |
| ACATTTGTTGATACAACCATAAAATCATAATTACACCCATAAATTGATAATTATCCCACCCAATTTAACTATAACGCTCTGATCATAGTCAGACCAACATTGCTACGACCCGTATTCGCACCGACAC | 1.64 ± 0.041 | -2.19 ± 0.14 |
| ACATTTGTTGATACAACCATAAAATCATAATTACACCCATAAATTGATAATTATCCCACCCCATTTAACTATAACGCTCTGATCATAGTCAGACCAACATTGCTACGACCCGTATTCGCACCGACAC | 1.23 ± 0.046 | -2.73 ± 0.22 |
| ACATTTGTTGATACAACCATAAAATCATAATTACACCCATCAATTGATAATTATCACACCCAATTTAACTATAACGCTCTGATCATAGTCAGACCAACATTGCTACGACCCGTATTCGCACCGACAC | -0.27 ± 0.36 | -4.01 ± 0.22 |
| ACATTTGTTGATACAACCATAAAATCATAATTACACCCATCAATTGATAATTATCACACCCCATTTAACTATAACGCTCTGATCATAGTCAGACCAACATTGCTACGACCCGTATTCGCACCGACAC | -0.773 ± 0.047 | -4.31 ± 0.11 |
| ACATTTGTTGATACAACCATAAAATCATAATTACACCCATCAATTGATAATTATCCCACCCAATTTAACTATAACGCTCTGATCATAGTCAGACCAACATTGCTACGACCCGTATTCGCACCGACAC | -0.195 ± 0.066 | -3.92 ± 0.52 |
| ACATTTGTTGATACAACCATAAAATCATAATTACACCCATCAATTGATAATTATCCCACCCCATTTAACTATAACGCTCTGATCATAGTCAGACCAACATTGCTACGACCCGTATTCGCACCGACAC | -0.633 ± 0.39 | -4.292 ± 0.026 |
| ACATTTGTTGATACAACCATAAAATCATAATTACCCCCATAAATTGATAATTATCACACCCAATTTAACTATAACGCTCTGATCATAGTCAGACCAACATTGCTACGACCCGTATTCGCACCGACAC | 0.699 ± 0.11 | -3.09 ± 0.33 |
| ACATTTGTTGATACAACCATAAAATCATAATTACCCCCATAAATTGATAATTATCACACCCCATTTAACTATAACGCTCTGATCATAGTCAGACCAACATTGCTACGACCCGTATTCGCACCGACAC | 0.532 ± 0.1 | -3.3 ± 0.19 |
| ACATTTGTTGATACAACCATAAAATCATAATTACCCCCATAAATTGATAATTATCCCACCCAATTTAACTATAACGCTCTGATCATAGTCAGACCAACATTGCTACGACCCGTATTCGCACCGACAC | 3.39 ± 0.37 | -0.611 ± 0.71 |
| ACATTTGTTGATACAACCATAAAATCATAATTACCCCCATAAATTGATAATTATCCCACCCCATTTAACTATAACGCTCTGATCATAGTCAGACCAACATTGCTACGACCCGTATTCGCACCGACAC | 0.676 ± 0.046 | -3.28 ± 0.32 |
| ACATTTGTTGATACAACCATAAAATCATAATTACCCCCATCAATTGATAATTATCACACCCAATTTAACTATAACGCTCTGATCATAGTCAGACCAACATTGCTACGACCCGTATTCGCACCGACAC | -2.04 ± 0.46 | -5.12 ± 0.12 |
| ACATTTGTTGATACAACCATAAAATCATAATTACCCCCATCAATTGATAATTATCACACCCCATTTAACTATAACGCTCTGATCATAGTCAGACCAACATTGCTACGACCCGTATTCGCACCGACAC | -1.5 ± 0.28 | -5.34 ± 0.18 |
| ACATTTGTTGATACAACCATAAAATCATAATTACCCCCATCAATTGATAATTATCCCACCCAATTTAACTATAACGCTCTGATCATAGTCAGACCAACATTGCTACGACCCGTATTCGCACCGACAC | -1.33 ± 0.49 | -5.51 ± 0.13 |
| ACATTTGTTGATACAACCATAAAATCATAATTACCCCCATCAATTGATAATTATCCCACCCCATTTAACTATAACGCTCTGATCATAGTCAGACCAACATTGCTACGACCCGTATTCGCACCGACAC | -2.4 ± 0.19 | -5.42 ± 0.086 |

| Sequence | relative integration efficiency (log2) [1] | relative integration efficiency (log2) [2] |
| --- | --- | --- |
| ACATTTGTTGATACAACCATAAAATCATAATTCACCCATAAATTGATAATTATCACACCCACATTTAACTATAACGCTCTGATCATAGTCAGACCAACATTGCTACGACCCGTATTCGCACCGACAC | -0.0705 ± 0.067 | -4.53 ± 0.24 |
| ACATTTGTTGATACAACCATAAAATCATAATTCACCCCTAAATTGATAATTATCACACCCACATTTAACTATAACGCTCTGATCATAGTCAGACCAACATTGCTACGACCCGTATTCGCACCGACAC | -1.89 ± 0.27 | -6.26 ± 0.19 |
| ACATTTGTTGATACAACCATAAAATCATCATTACACCCATAAATTGATAATTATCACACCCAATTTAACTATAACGCTCTGATCATAGTCAGACCAACATTGCTACGACCCGTATTCGCACCGACAC | 0.617 ± 0.13 | -3.16 ± 0.25 |
| ACATTTGTTGATACAACCATAAAATCATCATTACACCCATAAATTGATAATTATCACACCCCATTTAACTATAACGCTCTGATCATAGTCAGACCAACATTGCTACGACCCGTATTCGCACCGACAC | 0.57 ± 0.096 | -3.39 ± 0.35 |
| ACATTTGTTGATACAACCATAAAATCATCATTACACCCATAAATTGATAATTATCCCACCCAATTTAACTATAACGCTCTGATCATAGTCAGACCAACATTGCTACGACCCGTATTCGCACCGACAC | 0.728 ± 0.058 | -3.07 ± 0.5 |
| ACATTTGTTGATACAACCATAAAATCATCATTACACCCATAAATTGATAATTATCCCACCCCATTTAACTATAACGCTCTGATCATAGTCAGACCAACATTGCTACGACCCGTATTCGCACCGACAC | 0.992 ± 0.31 | -2.81 ± 0.49 |
| ACATTTGTTGATACAACCATAAAATCATCATTACACCCATCAATTGATAATTATCACACCCAATTTAACTATAACGCTCTGATCATAGTCAGACCAACATTGCTACGACCCGTATTCGCACCGACAC | -0.508 ± 0.42 | -4.74 ± 0.38 |
| ACATTTGTTGATACAACCATAAAATCATCATTACACCCATCAATTGATAATTATCACACCCCATTTAACTATAACGCTCTGATCATAGTCAGACCAACATTGCTACGACCCGTATTCGCACCGACAC | -1.24 ± 0.14 | -4.88 ± 0.26 |
| ACATTTGTTGATACAACCATAAAATCATCATTACACCCATCAATTGATAATTATCCCACCCAATTTAACTATAACGCTCTGATCATAGTCAGACCAACATTGCTACGACCCGTATTCGCACCGACAC | -1.17 ± 0.061 | -4.67 ± 0.2 |
| ACATTTGTTGATACAACCATAAAATCATCATTACACCCATCAATTGATAATTATCCCACCCCATTTAACTATAACGCTCTGATCATAGTCAGACCAACATTGCTACGACCCGTATTCGCACCGACAC | -1.08 ± 0.22 | -4.36 ± 0.26 |
| ACATTTGTTGATACAACCATAAAATCATCATTACCCCCATAAATTGATAATTATCACACCCAATTTAACTATAACGCTCTGATCATAGTCAGACCAACATTGCTACGACCCGTATTCGCACCGACAC | -0.419 ± 0.52 | -4.04 ± 0.25 |
| ACATTTGTTGATACAACCATAAAATCATCATTACCCCCATAAATTGATAATTATCACACCCCATTTAACTATAACGCTCTGATCATAGTCAGACCAACATTGCTACGACCCGTATTCGCACCGACAC | -0.211 ± 0.014 | -3.71 ± 0.07 |
| ACATTTGTTGATACAACCATAAAATCATCATTACCCCCATAAATTGATAATTATCCCACCCAATTTAACTATAACGCTCTGATCATAGTCAGACCAACATTGCTACGACCCGTATTCGCACCGACAC | 0.215 ± 0.23 | -3.815 ± 0.027 |
| ACATTTGTTGATACAACCATAAAATCATCATTACCCCCATAAATTGATAATTATCCCACCCCATTTAACTATAACGCTCTGATCATAGTCAGACCAACATTGCTACGACCCGTATTCGCACCGACAC | -0.0125 ± 0.058 | -3.69 ± 0.077 |
| ACATTTGTTGATACAACCATAAAATCATCATTACCCCCATCAATTGATAATTATCACACCCAATTTAACTATAACGCTCTGATCATAGTCAGACCAACATTGCTACGACCCGTATTCGCACCGACAC | -1.24 ± 0.5 | -5.41 ± 0.15 |
| ACATTTGTTGATACAACCATAAAATCATCATTACCCCCATCAATTGATAATTATCACACCCCATTTAACTATAACGCTCTGATCATAGTCAGACCAACATTGCTACGACCCGTATTCGCACCGACAC | -1.95 ± 0.53 | -5.76 ± 0.07 |
| ACATTTGTTGATACAACCATAAAATCATCATTACCCCCATCAATTGATAATTATCCCACCCAATTTAACTATAACGCTCTGATCATAGTCAGACCAACATTGCTACGACCCGTATTCGCACCGACAC | -1.26 ± 0.14 | -5.47 ± 0.095 |
